Assay results from patent publication US20240117018A1.

How the values were obtained:
Assay in all cases: cell-based or functional assay
[1] = target: HIV-1 Env of pseudovirus P0402_c2_11 (HIV-1)
[2] = target: HIV-1 Env of pseudovirus 89-F1_2_25 (HIV-1)
[3] = target: HIV-1 Env of pseudovirus C1080.c03 (HIV-1)
[4] = target: HIV-1 Env of pseudovirus X1193_c1 (HIV-1)
[5] = target: HIV-1 Env of pseudovirus 3817.v2.c59 (HIV-1)
[6] = target: HIV-1 Env of pseudovirus BJOX028000.10.3 (HIV-1)
[7] = target: HIV-1 Env of pseudovirus 211-9 (HIV-1)
[8] = target: HIV-1 Env of pseudovirus BJOX009000.02.4 (HIV-1)
[9] = target: HIV-1 Env of pseudovirus BJOX010000.06.2 (HIV-1)
[10] = target: HIV-1 Env of pseudovirus 3103.v3.c10 (HIV-1)
[11] = target: HIV-1 Env of pseudovirus X1632_S2_B10 (HIV-1)
[12] = target: HIV-1 Env of pseudovirus T257-31 (HIV-1)
[13] = target: HIV-1 Env of pseudovirus R2184.c04 (HIV-1)
[14] = target: HIV-1 Env of pseudovirus 0815.v3.c3 (HIV-1)
[15] = target: HIV-1 Env of pseudovirus R1166.c01 (HIV-1)
[16] = target: HIV-1 Env of pseudovirus X2131_C1_B5 (HIV-1)
[17] = target: HIV-1 Env of pseudovirus 6540.v4.c1 (HIV-1)
[18] = target: HIV-1 Env of pseudovirus C4118.c09 (HIV-1)
[19] = target: HIV-1 Env of pseudovirus BJOX025000.01.1 (HIV-1)
[20] = target: HIV-1 Env of pseudovirus 235-47 (HIV-1)
[21] = target: HIV-1 Env of pseudovirus T251-18 (HIV-1)
[22] = target: HIV-1 Env of pseudovirus 263-8 (HIV-1)
[23] = target: HIV-1 Env of pseudovirus 191084 B7-19 (HIV-1)
[24] = target: HIV-1 Env of pseudovirus 231966.c02 (HIV-1)
[25] = target: HIV-1 Env of pseudovirus BJOX015000.11.5 (HIV-1)
[26] = target: HIV-1 Env of pseudovirus 6480.v4.c25 (HIV-1)
[27] = target: HIV-1 Env of pseudovirus R3265.c06 (HIV-1)
[28] = target: HIV-1 Env of pseudovirus X2088_c9 (HIV-1)
[29] = target: HIV-1 Env of pseudovirus 928-28 (HIV-1)
[30] = target: HIV-1 Env of pseudovirus 191955_A11 (HIV-1)
[31] = target: HIV-1 Env of pseudovirus 3301.v1.c24 (HIV-1)
[32] = target: HIV-1 Env of pseudovirus C3347.c11 (HIV-1)
[33] = target: HIV-1 Env of pseudovirus T255-34 (HIV-1)
[34] = target: HIV-1 Env of pseudovirus 6811.v7.c18 (HIV-1)
[35] = target: HIV-1 Env of pseudovirus 6041.v3.c23 (HIV-1)
[36] = target: HIV-1 Env of pseudovirus P1981_C5_3 (HIV-1)

N49P9.1 (antibody)
neutralization IC50 [1]: 0.06 µg/mL
neutralization IC80 [1]: 0.163 µg/mL
neutralization MPI [1]: 100
neutralization IC50 [2]: > 50 µg/mL
neutralization IC80 [2]: > 50 µg/mL
neutralization MPI [2]: 23
neutralization IC50 [3]: 0.156 µg/mL
neutralization IC80 [3]: 0.939 µg/mL
neutralization MPI [3]: 100
neutralization IC50 [4]: 0.042 µg/mL
neutralization IC80 [4]: 0.15 µg/mL
neutralization MPI [4]: 100
neutralization IC50 [5]: 1.35 µg/mL
neutralization IC80 [5]: 8.26 µg/mL
neutralization MPI [5]: 95
neutralization IC50 [6]: 0.04 µg/mL
neutralization IC80 [6]: 0.2 µg/mL
neutralization MPI [6]: 100
neutralization IC50 [7]: 0.17 µg/mL
neutralization IC80 [7]: 0.579 µg/mL
neutralization MPI [7]: 100
neutralization IC50 [8]: 0.965 µg/mL
neutralization IC80 [8]: 3.93 µg/mL
neutralization MPI [8]: 100
neutralization IC50 [9]: 0.883 µg/mL
neutralization IC80 [9]: 4.26 µg/mL
neutralization MPI [9]: 100
neutralization IC50 [10]: > 50 µg/mL
neutralization IC80 [10]: > 50 µg/mL
neutralization MPI [10]: 45
neutralization IC50 [11]: > 50 µg/mL
neutralization IC80 [11]: > 50 µg/mL
neutralization MPI [11]: 10
neutralization IC50 [12]: 0.508 µg/mL
neutralization IC80 [12]: 1.82 µg/mL
neutralization MPI [12]: 100
neutralization IC50 [13]: 0.019 µg/mL
neutralization IC80 [13]: 0.057 µg/mL
neutralization MPI [13]: 100
neutralization IC50 [14]: 0.012 µg/mL
neutralization IC80 [14]: 0.041 µg/mL
neutralization MPI [14]: 100
neutralization IC50 [15]: 0.073 µg/mL
neutralization IC80 [15]: 0.232 µg/mL
neutralization MPI [15]: 100
neutralization IC50 [16]: 0.143 µg/mL
neutralization IC80 [16]: 0.476 µg/mL
neutralization MPI [16]: 100
neutralization IC50 [17]: > 50 µg/mL
neutralization IC80 [17]: > 50 µg/mL
neutralization MPI [17]: 30
neutralization IC50 [18]: 0.062 µg/mL
neutralization IC80 [18]: 0.218 µg/mL
neutralization MPI [18]: 100
neutralization IC50 [19]: 0.131 µg/mL
neutralization IC80 [19]: 0.67 µg/mL
neutralization MPI [19]: 100
neutralization IC50 [20]: 0.045 µg/mL
neutralization IC80 [20]: 0.352 µg/mL
neutralization MPI [20]: 98
neutralization IC50 [21]: 0.127 µg/mL
neutralization IC80 [21]: 0.352 µg/mL
neutralization MPI [21]: 100
neutralization IC50 [22]: 0.049 µg/mL
neutralization IC80 [22]: 0.17 µg/mL
neutralization MPI [22]: 100
neutralization IC50 [23]: 0.097 µg/mL
neutralization IC80 [23]: 0.259 µg/mL
neutralization MPI [23]: 100
neutralization IC50 [24]: 0.067 µg/mL
neutralization IC80 [24]: 0.237 µg/mL
neutralization MPI [24]: 100
neutralization IC50 [25]: 0.068 µg/mL
neutralization IC80 [25]: 0.478 µg/mL
neutralization MPI [25]: 100
neutralization IC50 [26]: 0.03 µg/mL
neutralization IC80 [26]: 0.082 µg/mL
neutralization MPI [26]: 100
neutralization IC50 [27]: 0.469 µg/mL
neutralization IC80 [27]: 1.62 µg/mL
neutralization MPI [27]: 100
neutralization IC50 [28]: 0.091 µg/mL
neutralization IC80 [28]: 0.392 µg/mL
neutralization MPI [28]: 100
neutralization IC50 [29]: 0.163 µg/mL
neutralization IC80 [29]: 0.695 µg/mL
neutralization MPI [29]: 100
neutralization IC50 [30]: > 50 µg/mL
neutralization IC80 [30]: > 50 µg/mL
neutralization MPI [30]: 26
neutralization IC50 [31]: 0.059 µg/mL
neutralization IC80 [31]: 0.178 µg/mL
neutralization MPI [31]: 100
neutralization IC50 [32]: 0.029 µg/mL
neutralization IC80 [32]: 0.083 µg/mL
neutralization MPI [32]: 100
neutralization IC50 [33]: 0.092 µg/mL
neutralization IC80 [33]: 0.286 µg/mL
neutralization MPI [33]: 100
neutralization IC50 [34]: 0.398 µg/mL
neutralization IC80 [34]: 1.76 µg/mL
neutralization MPI [34]: 97
neutralization IC50 [35]: 0.282 µg/mL
neutralization IC80 [35]: 6.78 µg/mL
neutralization MPI [35]: 90
neutralization IC50 [36]: 0.469 µg/mL
neutralization IC80 [36]: 1.52 µg/mL
neutralization MPI [36]: 100
